{"source": "patent US7326418B2", "about": "“Identification of novel factors that block programmed cell death or apoptosis by targeting JNK” (University of Chicago, priority 2001, dated 2008)", "molecules": {"B1": {"name": "GST-Gadd45β: full-length murine Gadd45β directly fused to GST, purified from E. coli (protein)", "chain": "MTLEELVASDNAVQKMQAVTAAVEQLLVAAQRQDRLTVGVYEAAKLMNVDPDSVVLCLLAIDEEEEDDIALQIHFTLIQSFCCDNDIDIVRVSGMQRLAQLLGEPAETLGTTEARDLHCLLVTNCHTDSWKSQGLVEVASYCEESRGNNQWVPYISLEER", "modifications": "left off: a dimerising Fc or GST", "notes": "full-length murine Gadd45β directly fused to GST, purified from E. coli"}, "B2": {"name": "Gadd45β: purified recombinant His6-tagged Gadd45β protein; also used generically for the recombinant Gadd45β proteins (protein, UniProt O75293 1-160, looked up)", "Growth arrest and DNA …": "MTLEELVACDNAAQKMQTVTAAVEELLVAAQRQDRLTVGVYESAKLMNVDPDSVVLCLLAIDEEEEDDIALQIHFTLIQSFCCDNDINIVRVSGMQRLAQLLGEPAETQGTTEARDLHCLLVTNPHTDAWKSHGLVEVASYCEESRGNNQWVPYISLQER", "modifications": "His6 tag", "notes": "purified recombinant His6-tagged Gadd45β protein; also used generically for the recombinant Gadd45β proteins"}, "B3": {"name": "His6-Gadd45β: human full-length Gadd45β purified from E. coli as His6-tagged protein (protein, UniProt O75293 1-160, looked up)", "chain": "B2 Growth arrest and DNA …", "modifications": "full-length His6 tag", "notes": "human full-length Gadd45β purified from E. coli as His6-tagged protein"}}, "molecular_target": "T1, JNKK2/MKK7 (Homo sapiens, UniProt O14733, Q133P/Q94H)", "T1 construct": "expressed in transfected cells; host or cells: HEK-293, TNFα-treated or untreated; anti-FLAG immunoprecipitate", "T1 sequence (O14733 1-401 Q94H/Q133P limits assumed)": "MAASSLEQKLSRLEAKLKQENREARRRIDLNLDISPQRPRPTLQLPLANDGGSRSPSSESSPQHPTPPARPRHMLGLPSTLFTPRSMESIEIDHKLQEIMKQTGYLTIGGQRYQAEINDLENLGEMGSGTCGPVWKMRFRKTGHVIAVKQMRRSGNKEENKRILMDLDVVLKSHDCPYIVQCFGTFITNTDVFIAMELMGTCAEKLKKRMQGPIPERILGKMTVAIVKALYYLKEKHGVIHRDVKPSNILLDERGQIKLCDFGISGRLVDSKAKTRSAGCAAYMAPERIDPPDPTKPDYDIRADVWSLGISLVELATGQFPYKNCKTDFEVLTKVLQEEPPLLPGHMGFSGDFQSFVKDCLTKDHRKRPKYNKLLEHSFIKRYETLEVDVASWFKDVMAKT", "assay": "Kinase assay of immunoprecipitated FLAG-JNKK2/MKK7 (GST-JNK1 substrate) pre-incubated with recombinant Gadd45β proteins or peptides", "type": "biochemical", "details": "for inhibition of JNKK2/MKK7 activity (GST-JNK1 phosphorylation): FLAG-JNKK2 from 293 cells, 10 min pre-incubation with increasing concentrations of recombinant protein", "description": "Next, the functional consequences, in vitro, of the physical interactions of Gadd45β with kinases in the JNK pathway were assessed. Murine and human, full-length Gadd45J3 proteins were purified from E. coli as GST-Gadd45β and His6-tagged Gadd45β (His6 disclosed as SEQ ID NO: 46), respectively, according to standard procedures. Prior to employing these proteins in in vitro assays, purity of all recombinant polypeptides was assured by >98%, by performing Coomassie blue staining of SDS polyacrylamide gels. Then, the ability of these proteins, as well as of control GST and His6-EF3 (His6 disclosed as SEQ ID NO: 46)proteins, to inhibit kinases in the JNK pathways was monitored in vitro. FLAG-tagged JNKK2, JNKK1, MKK3, and ASK1 were immunoprecipitated from transiently transfected 293 cells using anti-FLAG antibodies and pre-incubated for 10 minutes with increasing concentrations of recombinant proteins, prior to the addition of specific kinase substrates (i.e. GST-JNK1 with JNKK1 and JNKK2; GST-p38[…] with MKK3; GST-JNNK1 or GST-JNKK2 with ASK1). […] These findings indicate that, upon binding to Gadd45β, JNKK2 is effectively inactivated.\nA question was whether Gadd45β inhibited active MKK7, in vitro. FLAG-MKK7 was immunoprecipitated from TNFα-treated or untreated 293 cells, and kinase assays were performed in the presence of purified His6-Gadd45β (His6 disclosed as SEQ ID NO: 46), GST-Gadd45β, or control proteins (FIG. 28d; see also FIG. 28g). […] Consistent with the in vivo findings (FIG. 27), the inhibitory activity of Gadd45β was specific. […] Indeed, the effects of Gadd45β on MKK7 phosphorylation by TNFα may be due inhibition of the MKK7 ability to auto-phoshorylate and/or to serve as substrate for upstream kinases. Altogether, the findings identify MKK7 as a target of Gadd45β, and of NF-[…]B, in the JNK cascade. Of interest, MKK7 is a selective activator of JNK, and its ablation abolishes JNK activation by TNFα. Thus, blockade of MKK7 is sufficient on its own to explain the effects of Gadd45β on JNK signaling—i.e. its specific and near-complete suppression of this signaling.\nActive MKK7 was immunoprecipitated from TNFα-activated 293 cells and MKK7 kinase assays were performed using GST-JNK1 substrates and pure recombinant Gadd45β polypeptides (FIG. 37B; a schematic diagram representing the Gadd45βpolypeptides used is shown in FIG. 37A). […] MKK7 kinase assays were performed as in FIG. 37B, except that pure synthetic Gadd45, peptides (whose sequences are shown in FIG. 37C) were used instead of pure recombinant Gadd45β proteins. The amino acid region between amino acids 58 and 77 of Gadd45βis used for the Gadd45β-mediated inhibition of MKK7. […]", "note": "“Also recorded” adds a separate entry of the source."}
{"molecule": "B1", "values": [{"measurement": "inhibition of JNKK2/MKK7 activity (GST-JNK1 phosphorylation)", "value": "blocked GST-JNK1 phosphorylation by MKK7, in a dose-dependent manner; also recorded: effectively suppressed"}]}
{"molecule": "B2", "values": [{"measurement": "JNKK2 auto-phosphorylation", "setting": "in vitro", "value": "inhibited"}]}
{"molecule": "B3", "values": [{"measurement": "inhibition of JNKK2/MKK7 activity (GST-JNK1 phosphorylation)", "value": "blocked GST-JNK1 phosphorylation by MKK7, in a dose-dependent manner; also recorded: effectively suppressed"}]}
